We go through one molecule from patent US20240189392A1 (AMBRX, published 2024).

What all share (experiment): cell-based or functional assay
For one assay, the target named is T1, mouse RXFP1 (mouse, UniProt Q6R6I7 1-758).
T1 sequence (looked up): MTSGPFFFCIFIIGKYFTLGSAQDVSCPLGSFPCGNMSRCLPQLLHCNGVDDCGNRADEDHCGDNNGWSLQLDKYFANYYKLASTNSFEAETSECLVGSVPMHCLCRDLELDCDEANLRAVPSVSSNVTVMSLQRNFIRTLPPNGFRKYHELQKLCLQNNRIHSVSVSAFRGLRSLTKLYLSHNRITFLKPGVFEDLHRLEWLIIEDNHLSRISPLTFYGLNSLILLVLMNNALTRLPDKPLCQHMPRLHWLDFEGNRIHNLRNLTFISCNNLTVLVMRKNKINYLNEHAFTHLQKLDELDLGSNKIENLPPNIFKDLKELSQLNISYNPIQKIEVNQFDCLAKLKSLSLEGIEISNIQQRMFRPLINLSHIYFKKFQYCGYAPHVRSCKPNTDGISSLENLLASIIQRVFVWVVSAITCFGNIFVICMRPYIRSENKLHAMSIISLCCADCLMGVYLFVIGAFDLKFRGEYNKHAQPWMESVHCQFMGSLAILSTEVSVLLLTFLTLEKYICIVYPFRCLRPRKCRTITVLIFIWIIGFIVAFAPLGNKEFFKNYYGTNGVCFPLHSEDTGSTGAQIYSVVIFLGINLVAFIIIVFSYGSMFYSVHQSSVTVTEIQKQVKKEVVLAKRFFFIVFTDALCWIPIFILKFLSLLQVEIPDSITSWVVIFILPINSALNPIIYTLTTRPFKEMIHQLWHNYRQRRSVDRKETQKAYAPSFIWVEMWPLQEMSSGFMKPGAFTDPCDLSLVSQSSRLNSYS

The target of the next assay is T2, cynomolgus monkey RXFP1 (cynomolgus monkey, UniProt H9ERA2 1-757 (rhesus entry)).
T2 sequence: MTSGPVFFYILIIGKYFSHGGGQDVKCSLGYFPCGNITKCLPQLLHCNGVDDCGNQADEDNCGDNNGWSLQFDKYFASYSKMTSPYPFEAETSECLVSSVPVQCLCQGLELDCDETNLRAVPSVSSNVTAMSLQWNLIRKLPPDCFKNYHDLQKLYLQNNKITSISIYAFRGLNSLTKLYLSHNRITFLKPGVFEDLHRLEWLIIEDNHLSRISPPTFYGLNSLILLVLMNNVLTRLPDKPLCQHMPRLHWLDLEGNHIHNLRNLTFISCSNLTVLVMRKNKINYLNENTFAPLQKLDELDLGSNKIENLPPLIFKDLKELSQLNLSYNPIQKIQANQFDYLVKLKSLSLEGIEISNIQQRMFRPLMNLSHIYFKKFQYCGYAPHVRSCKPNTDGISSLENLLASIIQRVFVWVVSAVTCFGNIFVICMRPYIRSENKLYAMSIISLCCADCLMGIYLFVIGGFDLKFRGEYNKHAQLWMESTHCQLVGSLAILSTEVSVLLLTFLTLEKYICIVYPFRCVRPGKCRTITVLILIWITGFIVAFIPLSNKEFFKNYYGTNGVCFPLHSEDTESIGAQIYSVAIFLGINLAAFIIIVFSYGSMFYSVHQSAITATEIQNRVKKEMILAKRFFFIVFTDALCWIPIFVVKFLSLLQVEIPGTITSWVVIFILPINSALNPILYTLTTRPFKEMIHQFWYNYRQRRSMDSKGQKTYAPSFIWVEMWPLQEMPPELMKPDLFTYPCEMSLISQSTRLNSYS

For another assay, the target named is T3, human RXFP1 (human, UniProt Q9HBX9 1-757).
T3 sequence (looked up): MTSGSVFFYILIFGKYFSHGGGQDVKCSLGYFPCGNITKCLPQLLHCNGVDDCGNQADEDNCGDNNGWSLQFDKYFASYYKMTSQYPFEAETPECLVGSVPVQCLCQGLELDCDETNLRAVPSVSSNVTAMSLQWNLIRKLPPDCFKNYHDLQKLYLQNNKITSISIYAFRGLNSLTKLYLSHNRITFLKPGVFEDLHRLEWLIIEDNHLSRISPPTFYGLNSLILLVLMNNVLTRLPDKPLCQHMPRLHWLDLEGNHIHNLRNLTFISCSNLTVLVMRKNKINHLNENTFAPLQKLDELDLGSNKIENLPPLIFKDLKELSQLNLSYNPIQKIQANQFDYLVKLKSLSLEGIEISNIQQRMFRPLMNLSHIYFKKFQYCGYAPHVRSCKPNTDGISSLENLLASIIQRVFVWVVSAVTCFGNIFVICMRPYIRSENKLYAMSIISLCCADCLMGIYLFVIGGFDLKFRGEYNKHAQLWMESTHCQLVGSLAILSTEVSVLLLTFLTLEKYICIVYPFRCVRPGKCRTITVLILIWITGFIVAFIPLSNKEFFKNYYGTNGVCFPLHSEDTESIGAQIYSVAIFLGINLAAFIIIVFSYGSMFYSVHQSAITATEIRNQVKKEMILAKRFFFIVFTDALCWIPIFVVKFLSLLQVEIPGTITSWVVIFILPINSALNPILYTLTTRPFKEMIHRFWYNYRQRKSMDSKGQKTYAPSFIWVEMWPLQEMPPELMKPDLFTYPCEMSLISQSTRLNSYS

B1: RLX-A-AQ1-20KPEG (ligand)
chain 1: XLYSALANKCCHVGCTKRSLARFC
chain 2: ASWMEEVIKLCGRELVRAQIAICGMSTWS
modifications: pACF (para-acetylphenylalanine) at position 1 of the A chain, linked to a 20 kDA PEG via an oxime linkage
In the case of B1, in the assay with mouse RXFP1, the “Potency Ratio (RLX-A-AQ1-20KPEG/WT-RLX), cAMP assay, mouse RXFP1/CHO-K1 cells” value came to 22 fold; the “RLX-A-AQ1-20KPEG Potency Ratio (hRXFP 1-1.0), cAMP assay” value came to 0.66 ratio; the “cAMP Assay EC50 (nM), mouse RXFP1/CHO-K1 cells” value was 2.1 nM. In addition, in the assay with cynomolgus monkey RXFP1, the “Potency Ratio (RLX-A-AQ1-20KPEG/WT-RLX), cAMP assay, cyno RXFP1/CHO-K1 cells” value was determined as 33 fold; the “RLX-A-AQ1-20KPEG Potency Ratio (hRXFP 1-1.0), cAMP assay” value came out at 1.6 ratio; the “cAMP Assay EC50 (nM), cyno RXFP1/CHO-K1 cells” value came out at 1.97 nM. For the same molecule, the “In vitro Activity Fold Loss” value in the assay with human RXFP1 turned out to be 12 fold.
